According to patent publication US20140179896A1 (published 2014):

B1: E12 (designed binder)
chain: EVVAATPTSLLISWRHPHFPTRYYRITYGETGGNSPVQEFTVPLQPPTATISGLKPGVDYTITGYAVTFARDGHEILTPISINYRT
notes: 10Fn3 clone, Del 1-8
B2: E15 (designed binder)
chain: EVVAATPTSLLISWRHPHFPTRYYRITYGETGGNSPVQEFTVPLQPPTATISGLKPGVDYTITGYAVTLEPNGRYLMVPISINYRT
notes: 10Fn3 clone, Del 1-8
B3: F4 (designed binder)
chain: EVVAATPTSLLISWRHPHFPTRYYRITYGETGGNSPVQEFTVPLQPPTATISGLKPGVDYTITGYAVTVERDGRTLRTPISINYRT
notes: 10Fn3 clone, Del 1-8
B4: E14 (designed binder)
chain: EVVAATPTSLLISWRHPHFPTRYYRITYGETGGNSPVQEFTVPLQPPTATISGLKPGVDYTITGYAVTLERNGQVLFTPISINYRT
notes: 10Fn3 clone, Del 1-8
B5: EGE9 (designed binder)
chain: EVVAATPTSLLISWRHPHFPTRYYRITYGETGGNSPVQEFTVPLQPPTATISGLKPGVDYTITGYAVTFGPNDRELLTPISINYRT
notes: 10Fn3 clone, Del 1-8
B6: EGE3 (designed binder)
chain: EVVAATPTSLLISWRHPHFPTRYYRITYGETGGNSPVQEFTVPLQPPTATISGLKPGVDYTITGYAVTVERNGRQLYTPISINYRT
notes: 10Fn3 clone, Del 1-8
B7: EGE7 (designed binder)
chain: EVVAATPTSLLISWRHPHFPTRYYRITYGETGGNSPVQEFTVPLQPPTATISGLKPGVDYTITGYAVTLERNDRVLLTPISINYRT
notes: 10Fn3 clone, Del 1-8
B8: F9 (designed binder)
chain: EVVAATPTSLLISWRHPHFPTRYYRITYGETGGNSPVQEFTVPLQPPTATISGLKPGVDYTITGYAVTVEPNGRVLNTPISINYRT
notes: 10Fn3 clone, Del 1-8
B9: E13 (designed binder)
chain: EVVAATPTSLLISWRHPHFPTRYYRITYGETGGNSPVQEFTVPLQPPTATISGLKPGVDYTITGYAVTLEQNGRELMTPISINYRT
notes: 10Fn3 clone, Del 1-8
B10: EGE11 (SEQ ID NO 87) (designed binder)
chain: EVVAATPTSLLISWRHPHFPTRYYRITYGETGGNSPVQEFTVPLQPPTATISGLKPGVDYTITGYAVTMGKNDRELLTPISINYRT
B11: F3 (designed binder)
chain: EVVAATPTSLLISWRHPHFPTRYYRITYGETGGNSPVQEFTVPLQPPTATISGLKPGVDYTITGYAVTVERDGRKLYTPISINYRT
notes: 10Fn3 clone, Del 1-8
B12: EGE11 (SEQ ID NO 72) (designed binder)
chain: EVVAATPTSLLISWRHPHFPTRYYRITYGETGGNSPVQEFTVPLQPPTATISGLKPGVDYTITGYAVTFGWNDRELLIPISINYRT
B13: E22 (designed binder)
chain: EVVAATPTSLLISWRHPHFPTRYYRITYGETGGNSPVQEFTVPLQPPTATISGLKPGVDYTITGYAVTLGRNDRELLTPISINYRT
notes: 10Fn3 clone, Del 1-8
B14: E21 (designed binder)
chain: EVVAATPTSLLISWRHPHFPTRYYRITYGETGGNSPVQEFTVPLQPPTATISGLKPGVDYTITGYAVTWGYKDHELLIPISINYRT
notes: 10Fn3 clone, Del 1-8
B15: E20 (designed binder)
chain: EVVAATPTSLLISWRHPHFPTRYYRITYGETGGNSPVQEFTVPLQPPTATISGLKPGVDYTITGYAVTVERNGQVLYTPISINYRT
notes: 10Fn3 clone, Del 1-8
B16: F7 (designed binder)
chain: EVVAATPTSLLISWRHPHFPTRYYRITYGETGGNSPVQEFTVPLQPPTATISGLKPGVDYTITGYAVTVEHNGRVLNIPISINYRT
notes: 10Fn3 clone, Del 1-8
B17: EGE10 (designed binder)
chain: EVVAATPTSLLISWRHPHFPTRYYRITYGETGGNSPVQEFTVPLQPPTATISGLKPGVDYTITGYAVTMGPNDRELLTPISINYRT
notes: 10Fn3 clone, Del 1-8
B18: EGE5 (designed binder)
chain: EVVAATPTSLLISWRHPHFPTRYYRITYGETGGNSPVQEFTVPLQPPTATISGLKPGVDYTITGYAVTLERNGRVLNTPISINYRT
notes: 10Fn3 clone, Del 1-8
B19: E24 (designed binder)
chain: EVVAATPTSLLISWRHPHFPTRYYRITYGETGGNSPVQEFTVPLQPPTATISGLKPGVDYTITGYAVTVERNDRVLFTPISINYRT
notes: 10Fn3 clone, Del 1-8
B20: EGE4 (designed binder)
chain: EVVAATPTSLLISWRHPHFPTRYYRITYGETGGNSPVQEFTVPLQPPTATISGLKPGVDYTITGYAVTVERNGRVLNTPISINYRT
notes: 10Fn3 clone, Del 1-8
B21: EGE6 (designed binder)
chain: EVVAATPTSLLISWRHPHFPTRYYRITYGETGGNSPVQEFTVPLQPPTATISGLKPGVDYTITGYAVTLERNGRLLNTPISINYRT
notes: 10Fn3 clone, Del 1-8
B22: EGE8 (designed binder)
chain: EVVAATPTSLLISWRHPHFPTRYYRITYGETGGNSPVQEFTVPLQPPTATISGLKPGVDYTITGYAVTVERNERVLMTPISINYRT
notes: 10Fn3 clone, Del 1-8
B23: F8 (designed binder)
chain: EVVAATPTSLLISWRHPHFPTRYYRITYGETGGNSPVQEFTVPLQPPTATISGLKPGVDYTITGYAVTVEHNGRTSFTPISINYRT
notes: 10Fn3 clone, Del 1-8
B24: F1 (designed binder)
chain: EVVAATPTSLLISWRHPHFPTRYYRITYGETGGNSPVQEFTVPLQPPTATISGLKPGVDYTITGYAVTSGRNDRELLVPISINYRT
notes: 10Fn3 clone, Del 1-8
B25: E17 (designed binder)
chain: EVVAATPTSLLISWRHPHFPTRYYRITYGETGGNSPVQEFTVPLQPPTATISGLKPGVDYTITGYAVTVEENGRVLNTPISINYRT
notes: 10Fn3 clone, Del 1-8
B26: E27 (designed binder)
chain: EVVAATPTSLLISWRHPHFPTRYYRITYGETGGNSPVQEFTVPLQPPTATISGLKPGVDYTITGYAVTVERNGHTLMTPISINYRT
notes: 10Fn3 clone, Del 1-8
B27: F10 (designed binder)
chain: EVVAATPTSLLISWRHPHFPTRYYRITYGETGGNSPVQEFTVPLQPPTATISGLKPGVDYTITGYAVTMAPNGRELLTPISINYRT
notes: 10Fn3 clone, Del 1-8
B28: E16 (designed binder)
chain: EVVAATPTSLLISWRHPHFPTRYYRITYGETGGNSPVQEFTVPLQPPTATISGLKPGVDYTITGYAVTVEENGRQLMTPISINYRT
notes: 10Fn3 clone, Del 1-8
B29: EGE2 (designed binder)
chain: EVVAATPTSLLISWRHPHFPTRYYRITYGETGGNSPVQEFTVPLQPPTATISGLKPGVDYTITGYAVTVERNGRQLMTPISINYRT
notes: 10Fn3 clone, Del 1-8
B30: EGE1 (designed binder)
chain: EVVAATPTSLLISWRHPHFPTRYYRITYGETGGNSPVQEFTVPLQPPTATISGLKPGVDYTITGYAVTLERNGRKLMTPISINYRT
notes: 10Fn3 clone, Del 1-8
B31: F6 (designed binder)
chain: EVVAATPTSLLISWRHPHFPTRYYRITYGETGGNSPVQEFTVPLQPPTATISGLKPGVDYTITGYAVTVEQNGRVLMTPISINYRT
notes: 10Fn3 clone, Del 1-8

Legend:
[1] = target: T1, mouse vascular endothelial growth factor receptor-2 Fc chimera (Flk-1-Fc) (mouse, UniProt P35918 20-762); assay: radioactive equilibrium binding assay, 1 nM Flk-1-Fc, % of input bound
T1 construct: Bought from R&D Systems; also called mouse VEGFR-2; not shown: Fc part of the purchased chimera, not specified
Protocol: (§1) To prepare ³⁵S-labeled binding proteins for analysis, mRNA was prepared as described above for RNA-protein fusion production but the linker ligation step was omitted. The mRNA was expressed using rabbit reticulocyte lysate translation kit (Ambion) in the presence of ³⁵S-labeled Met at 30° C. for 1 hour. Expressed protein was purified on M2-agarose Flag beads (Sigma) as described above. This procedure produced the encoded protein without the nucleic acid tail. In a direct binding assay, VEGF-R2-Fc fusions in concentrations ranging from 0 to 200 nM were added to a constant concentration of the purified protein (0.2 or 0.5 nM) and incubated at 30° C. for 1 hour in buffer B. The receptor-binder complexes were captured using Protein A magnetic beads for another 10 minutes at room temperature using a Kingfisher™ The beads were washed with six reaction volumes of buffer B. The protein was eluted from the beads with 100 μL of 0.1 M KOH. […] of the reaction mixture and elution were dried onto a LumaPlate-96 (Packard) and the amount of ³⁵S on the plate was measured using a TopCount NXT instrument (Packard). The amount of fibronectin-based scaffold protein bound to the target was estimated as a percent of radioactivity eluted from Protein A magnetic beads compare to radioactivity in the reaction mixture. Nonspecific binding of fibronectin-based scaffold proteins to the beads was determined by measuring binding in the absence of KDR-Fc and represented less than 1-2% of the input. Specific binding was obtained through subtraction of nonspecific binding from total binding. Data was analyzed using the GraphPad Prizm software (GraphPad Software, Inc, San Diego, Calif.), fitted using a one site, non-linear binding equation.

[2] = target: T2, human vascular endothelial growth factor receptor-2 Fc chimera (KDR-Fc) (human, UniProt P35968 20-764); assay: radioactive equilibrium binding assay, 1 nM KDR-Fc, % of input bound
T2 construct: range 1-764; also called human VEGFR-2; not shown: human IgG1 Fc
Protocol: as §1

T1 sequence (P35918 20-762, change not shown): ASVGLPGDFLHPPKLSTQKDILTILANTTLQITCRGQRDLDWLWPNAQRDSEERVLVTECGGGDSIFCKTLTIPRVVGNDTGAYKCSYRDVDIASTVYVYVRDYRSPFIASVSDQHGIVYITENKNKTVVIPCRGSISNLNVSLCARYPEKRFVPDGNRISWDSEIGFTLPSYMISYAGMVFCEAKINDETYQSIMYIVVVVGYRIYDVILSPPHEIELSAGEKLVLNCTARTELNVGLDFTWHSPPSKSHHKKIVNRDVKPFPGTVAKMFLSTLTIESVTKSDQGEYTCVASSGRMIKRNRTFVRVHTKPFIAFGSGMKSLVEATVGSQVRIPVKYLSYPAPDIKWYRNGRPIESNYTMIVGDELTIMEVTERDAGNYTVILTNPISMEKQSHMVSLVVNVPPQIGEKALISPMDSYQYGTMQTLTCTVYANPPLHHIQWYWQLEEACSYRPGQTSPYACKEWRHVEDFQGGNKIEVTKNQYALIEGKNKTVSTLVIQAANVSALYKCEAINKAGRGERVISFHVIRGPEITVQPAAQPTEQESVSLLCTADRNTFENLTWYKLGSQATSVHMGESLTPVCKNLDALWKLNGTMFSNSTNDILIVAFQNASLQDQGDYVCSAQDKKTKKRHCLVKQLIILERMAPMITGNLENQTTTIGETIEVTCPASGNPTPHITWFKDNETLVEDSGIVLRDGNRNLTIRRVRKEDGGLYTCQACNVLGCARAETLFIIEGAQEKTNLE
T2 sequence (P35968 20-764 limits assumed, change not shown, form in doubt): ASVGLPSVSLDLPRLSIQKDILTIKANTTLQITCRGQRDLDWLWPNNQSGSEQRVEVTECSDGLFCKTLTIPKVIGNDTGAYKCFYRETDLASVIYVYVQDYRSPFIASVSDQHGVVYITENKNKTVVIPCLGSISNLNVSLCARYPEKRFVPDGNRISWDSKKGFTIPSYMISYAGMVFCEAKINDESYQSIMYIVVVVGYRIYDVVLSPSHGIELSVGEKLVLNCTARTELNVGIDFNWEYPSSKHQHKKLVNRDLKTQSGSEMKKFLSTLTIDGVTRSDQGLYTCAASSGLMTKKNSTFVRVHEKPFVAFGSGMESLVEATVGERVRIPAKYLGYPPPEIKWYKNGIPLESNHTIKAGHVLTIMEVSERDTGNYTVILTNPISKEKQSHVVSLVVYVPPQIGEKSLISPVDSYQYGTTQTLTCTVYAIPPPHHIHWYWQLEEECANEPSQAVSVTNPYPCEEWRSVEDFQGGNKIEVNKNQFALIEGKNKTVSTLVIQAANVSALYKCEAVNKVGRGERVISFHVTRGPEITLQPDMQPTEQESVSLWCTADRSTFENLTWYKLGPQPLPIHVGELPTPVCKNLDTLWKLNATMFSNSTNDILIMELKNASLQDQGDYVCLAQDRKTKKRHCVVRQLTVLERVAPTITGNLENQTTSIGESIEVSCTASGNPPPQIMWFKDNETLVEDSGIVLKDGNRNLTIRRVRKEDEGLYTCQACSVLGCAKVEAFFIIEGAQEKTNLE

Binder | Binding to 1 nM Flk-1, % [1] | Binding to 1 nM KDR, % [2]
B1 | 1% | 36%
B2 | 2% | 52%
B3 | 18% | 31%
B4 | 11% | 33%
B5 | 1% | 32%
B6 | 38% | 34%
B7 | 30% | 31%
B8 | 23% | 32%
B9 | 1% | 38%
B10 | 1% | 32%
B11 | 15% | 27%
B12 | 0% | 50%
B13 | 3% | 45%
B14 | 1% | 47%
B15 | 11% | 43%
B16 | 7% | 30%

Binder | Binding to 1 nM Flk-1, % [1] | Binding to 1 nM KDR, % [2]
B17 | 1% | 37%
B18 | 47% | 32%
B19 | 29% | 24%
B20 | 41% | 26%
B21 | 40% | 33%
B22 | 20% | 26%
B23 | 13% | 33%
B24 | 2% | 18%
B25 | 10% | 32%
B26 | 9% | 37%
B27 | 1% | 29%
B28 | 0% | 35%
B29 | 33% | 42%
B30 | 29% | 30%
B31 | 2% | 37%
